{"source": "patent US20140112929A1", "target": "TNFR1 on human umbilical vein endothelial cells (HUVEC) (human) (UniProt P19438)", "sequence (P19438 30-455)": "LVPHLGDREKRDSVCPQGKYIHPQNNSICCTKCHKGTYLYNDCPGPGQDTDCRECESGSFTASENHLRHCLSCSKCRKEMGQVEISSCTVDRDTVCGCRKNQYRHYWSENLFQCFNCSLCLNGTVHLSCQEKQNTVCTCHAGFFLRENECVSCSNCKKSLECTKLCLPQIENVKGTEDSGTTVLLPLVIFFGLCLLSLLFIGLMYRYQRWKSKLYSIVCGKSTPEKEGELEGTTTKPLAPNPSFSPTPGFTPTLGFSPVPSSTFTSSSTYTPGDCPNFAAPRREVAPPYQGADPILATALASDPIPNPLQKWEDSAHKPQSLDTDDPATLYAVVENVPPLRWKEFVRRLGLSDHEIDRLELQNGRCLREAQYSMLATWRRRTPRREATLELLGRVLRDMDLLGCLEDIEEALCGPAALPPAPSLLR"}
{"substance": "DOM1h-131-206", "values": [{"measurement": "IC50 (read off the curve) [b]", "result": 0.5, "unit": "nM"}]}
